{"source": "paper PMC2925305", "about": "(Journal of Nucleic Acids, 2010)", "key": {"[1]": {"target": "SUMO-1-GST-TDG (SUMO-1-conjugated GST-TDG) (UniProt Q13569)", "experiment": "pull-down; GST pull-down: 10 nM GST or GST-fusion protein and 10 nM XPC-RAD23B with 20 ul glutathione-Sepharose in 100 ul binding buffer (20 mM sodium phosphate pH 7.4, 1 mM EDTA, 150 mM NaCl, 1 mM DTT, 5% glycerol, 0.01% Triton X-100, 100 ug/ml BSA), on ice 1 hour, eight washes, elution with 10 mM glutathione; immunoblot with anti-XPC and anti-GST"}, "[2]": {"target": "SUMO-1-GST-TDG (SUMO-1-conjugated GST-TDG) (UniProt Q13569)"}, "[3]": {"target": "T1, GST-SMUG1 (GST-fused SMUG1) (UniProt Q53HV7 1-270)", "T1 sequence (looked up)": "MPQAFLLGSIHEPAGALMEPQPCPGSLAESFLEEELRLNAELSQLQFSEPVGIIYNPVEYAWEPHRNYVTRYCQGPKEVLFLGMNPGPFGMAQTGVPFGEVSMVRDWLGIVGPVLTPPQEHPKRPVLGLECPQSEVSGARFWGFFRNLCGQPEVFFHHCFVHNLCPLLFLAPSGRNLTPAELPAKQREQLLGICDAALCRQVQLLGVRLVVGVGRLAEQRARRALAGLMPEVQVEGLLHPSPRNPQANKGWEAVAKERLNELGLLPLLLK", "experiment": "cell-based or functional assay"}, "[4]": {"target": "GST-TDG (thymine DNA glycosylase fused to glutathione S-transferase, nonmodified) (human, UniProt Q13569 1-410)", "sequence (Q13569 whole entry, the tested form may be a part)": "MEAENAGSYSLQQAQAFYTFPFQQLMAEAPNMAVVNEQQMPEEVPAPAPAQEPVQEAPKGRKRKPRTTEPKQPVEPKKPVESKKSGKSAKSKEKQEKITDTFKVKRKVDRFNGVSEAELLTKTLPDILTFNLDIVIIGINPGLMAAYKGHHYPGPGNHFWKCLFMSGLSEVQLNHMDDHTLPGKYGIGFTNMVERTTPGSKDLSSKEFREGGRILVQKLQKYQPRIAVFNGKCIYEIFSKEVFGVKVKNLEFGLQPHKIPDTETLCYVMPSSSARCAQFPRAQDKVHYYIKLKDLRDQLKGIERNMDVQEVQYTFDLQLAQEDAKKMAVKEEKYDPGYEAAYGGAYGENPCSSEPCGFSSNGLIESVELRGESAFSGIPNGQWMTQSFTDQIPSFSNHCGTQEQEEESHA", "experiment": "cell-based or functional assay"}, "[5]": {"target": "T2, XPC (recombinant human XPC, alone) (human, UniProt Q01831 1-940)", "T2 sequence (looked up)": "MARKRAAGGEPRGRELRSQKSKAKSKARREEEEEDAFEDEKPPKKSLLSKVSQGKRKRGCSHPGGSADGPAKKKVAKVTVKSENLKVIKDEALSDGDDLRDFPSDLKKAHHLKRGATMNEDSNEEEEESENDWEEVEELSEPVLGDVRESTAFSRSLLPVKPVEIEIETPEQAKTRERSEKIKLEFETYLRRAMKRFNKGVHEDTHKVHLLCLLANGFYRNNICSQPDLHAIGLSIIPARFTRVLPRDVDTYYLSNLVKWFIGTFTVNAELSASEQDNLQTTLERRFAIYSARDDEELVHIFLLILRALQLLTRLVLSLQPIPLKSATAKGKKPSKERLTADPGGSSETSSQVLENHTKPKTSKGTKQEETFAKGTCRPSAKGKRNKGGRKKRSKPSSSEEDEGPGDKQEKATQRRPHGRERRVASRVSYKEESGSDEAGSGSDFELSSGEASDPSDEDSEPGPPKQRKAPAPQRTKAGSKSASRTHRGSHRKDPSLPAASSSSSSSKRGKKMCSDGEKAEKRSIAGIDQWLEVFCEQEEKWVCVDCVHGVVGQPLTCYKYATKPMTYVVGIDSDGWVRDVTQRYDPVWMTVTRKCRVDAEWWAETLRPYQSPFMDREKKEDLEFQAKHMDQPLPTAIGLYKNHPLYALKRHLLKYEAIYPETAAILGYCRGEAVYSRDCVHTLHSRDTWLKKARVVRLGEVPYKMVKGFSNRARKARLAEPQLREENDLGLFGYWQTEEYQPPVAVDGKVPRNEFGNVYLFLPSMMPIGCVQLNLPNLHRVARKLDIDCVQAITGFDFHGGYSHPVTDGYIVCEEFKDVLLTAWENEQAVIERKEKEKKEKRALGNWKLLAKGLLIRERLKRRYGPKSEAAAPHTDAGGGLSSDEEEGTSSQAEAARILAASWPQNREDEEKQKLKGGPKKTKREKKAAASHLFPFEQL", "experiment": "in vitro reconstitution of the heterodimer; XPC-RAD23B-His heterodimer reconstituted in vitro from purified recombinant XPC and RAD23B-His, as described previously [17]", "settings": "both partners purified"}}, "data": [{"molecule": "XPC-RAD23B-His heterodimer (from UniProt Q01831 1-940; P54727 1-409) (complex)", "values": [{"measurement": "fold more XPC bound than to nonmodified GST-TDG", "setting": "[1]", "result": 2, "unit": "fold"}, {"measurement": "stimulation by XPC-RAD23B (up to 4 nM, dose-dependent) of uracil excision from G/U mismatch DNA (1.6 nM) by 2 nM SUMO-1-conjugated His-TDG, nicking assay, 120 minutes", "setting": "[2]", "result": 5, "unit": "fold"}]}, {"molecule": "XPC-RAD23B-His heterodimer (complex, human) chain 1: MARKRAAGGEPRGRELRSQKSKAKSKARREEEEEDAFEDEKPPKKSLLSKVSQGKRKRGCSHPGGSADGPAKKKVAKVTVKSENLKVIKDEALSDGDDLRDFPSDLKKAHHLKRGATMNEDSNEEEEESENDWEEVEELSEPVLGDVRESTAFSRSLLPVKPVEIEIETPEQAKTRERSEKIKLEFETYLRRAMKRFNKGVHEDTHKVHLLCLLANGFYRNNICSQPDLHAIGLSIIPARFTRVLPRDVDTYYLSNLVKWFIGTFTVNAELSASEQDNLQTTLERRFAIYSARDDEELVHIFLLILRALQLLTRLVLSLQPIPLKSATAKGKKPSKERLTADPGGSSETSSQVLENHTKPKTSKGTKQEETFAKGTCRPSAKGKRNKGGRKKRSKPSSSEEDEGPGDKQEKATQRRPHGRERRVASRVSYKEESGSDEAGSGSDFELSSGEASDPSDEDSEPGPPKQRKAPAPQRTKAGSKSASRTHRGSHRKDPSLPAASSSSSSSKRGKKMCSDGEKAEKRSIAGIDQWLEVFCEQEEKWVCVDCVHGVVGQPLTCYKYATKPMTYVVGIDSDGWVRDVTQRYDPVWMTVTRKCRVDAEWWAETLRPYQSPFMDREKKEDLEFQAKHMDQPLPTAIGLYKNHPLYALKRHLLKYEAIYPETAAILGYCRGEAVYSRDCVHTLHSRDTWLKKARVVRLGEVPYKMVKGFSNRARKARLAEPQLREENDLGLFGYWQTEEYQPPVAVDGKVPRNEFGNVYLFLPSMMPIGCVQLNLPNLHRVARKLDIDCVQAITGFDFHGGYSHPVTDGYIVCEEFKDVLLTAWENEQAVIERKEKEKKEKRALGNWKLLAKGLLIRERLKRRYGPKSEAAAPHTDAGGGLSSDEEEGTSSQAEAARILAASWPQNREDEEKQKLKGGPKKTKREKKAAASHLFPFEQL chain 2: MQVTLKTLQQQTFKIDIDPEETVKALKEKIESEKGKDAFPVAGQKLIYAGKILNDDTALKEYKIDEKNFVVVMVTKPKAVSTPAPATTQQSAPASTTAVTSSTTTTVAQAPTPVPALAPTSTPASITPASATASSEPAPASAAKQEKPAEKPAETPVATSPTATDSTSGDSSRSNLFEDATSALVTGQSYENMVTEIMSMGYEREQVIAALRASFNNPDRAVEYLLMGIPGDRESQAVVDPPQAASTGAPQSSAVAAAAATTTATTTTTSSGGHPLEFLRNQPQFQQMRQIIQQNPSLLPALLQQIGRENPQLLQQISQHQEHFIQMLNEPVQEAGGQGGGGGGGSGGIAEAGSGHMNYIQVTPQEKEAIERLKALGFPEGLVIQAYFACEKNENLAANFLLQQNFDED", "values": [{"measurement": "stimulation by XPC-RAD23B (up to 2 nM, dose-dependent) of uracil excision from 60-bp G/U mismatch DNA (1.6 nM) by 2.5 pM SMUG1, nicking assay, 120 minutes", "setting": "[3]", "result": 4, "unit": "fold"}, {"measurement": "stimulation by XPC-RAD23B (various concentrations) of uracil excision from a 60-bp G/U mismatch DNA (1.6 nM) by 0.42 nM His-TDG, nicking assay, 30°C", "setting": "[4]", "result": 5, "unit": "fold"}]}, {"molecule": "His-tagged RAD23B (RAD23B-His) (natural protein, human, UniProt P54727 1-409, looked up) MQVTLKTLQQQTFKIDIDPEETVKALKEKIESEKGKDAFPVAGQKLIYAGKILNDDTALKEYKIDEKNFVVVMVTKPKAVSTPAPATTQQSAPASTTAVTSSTTTTVAQAPTPVPALAPTSTPASITPASATASSEPAPASAAKQEKPAEKPAETPVATSPTATDSTSGDSSRSNLFEDATSALVTGQSYENMVTEIMSMGYEREQVIAALRASFNNPDRAVEYLLMGIPGDRESQAVVDPPQAASTGAPQSSAVAAAAATTTATTTTTSSGGHPLEFLRNQPQFQQMRQIIQQNPSLLPALLQQIGRENPQLLQQISQHQEHFIQMLNEPVQEAGGQGGGGGGGSGGIAEAGSGHMNYIQVTPQEKEAIERLKALGFPEGLVIQAYFACEKNENLAANFLLQQNFDED", "values": [{"measurement": "binding result", "setting": "[5]", "result": "binds"}]}]}
